Source: PMC10937111, “Structural basis for intra- and intermolecular interactions on RAD9 subunit of 9-1-1 checkpoint clamp implies functional 9-1-1 regulation by RHINO” (The Journal of Biological Chemistry, 2024)

T1: recombinant human 9-1-1 ring for crystallization (RAD9 residues 1-270, His-HUS1, RAD1 F64A/M256A/F266A) (human, UniProt Q99638 1-270; O60671 1-282; O60921 2-280, F64A | M256A | F266A)
T1 construct: C-terminal truncated RAD9, human, residues 1-270; RAD1, human, with the triple substitutions F64A/M256A/F266A; HUS1, human; source: E. coli BL21(DE3), co-expressed, purified (HiTrap Heparin, HiTrap Q, HiLoad Superdex200); copies: + +
T1 sequence 1: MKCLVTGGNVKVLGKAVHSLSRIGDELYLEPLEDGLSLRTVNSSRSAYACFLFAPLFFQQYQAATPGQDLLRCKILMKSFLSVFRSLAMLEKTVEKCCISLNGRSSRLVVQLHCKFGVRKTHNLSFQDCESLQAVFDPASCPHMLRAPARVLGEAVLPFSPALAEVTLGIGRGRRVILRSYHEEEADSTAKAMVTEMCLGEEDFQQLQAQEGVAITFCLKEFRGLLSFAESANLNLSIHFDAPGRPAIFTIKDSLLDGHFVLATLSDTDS
T1 sequence 2: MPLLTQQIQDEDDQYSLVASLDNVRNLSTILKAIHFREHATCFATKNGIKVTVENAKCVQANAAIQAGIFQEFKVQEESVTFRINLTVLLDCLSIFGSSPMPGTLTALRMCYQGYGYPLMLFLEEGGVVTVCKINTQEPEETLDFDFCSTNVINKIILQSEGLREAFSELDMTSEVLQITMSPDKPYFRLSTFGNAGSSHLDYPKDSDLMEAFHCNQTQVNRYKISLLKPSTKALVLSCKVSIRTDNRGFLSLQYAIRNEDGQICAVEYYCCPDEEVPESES
T1 sequence 3: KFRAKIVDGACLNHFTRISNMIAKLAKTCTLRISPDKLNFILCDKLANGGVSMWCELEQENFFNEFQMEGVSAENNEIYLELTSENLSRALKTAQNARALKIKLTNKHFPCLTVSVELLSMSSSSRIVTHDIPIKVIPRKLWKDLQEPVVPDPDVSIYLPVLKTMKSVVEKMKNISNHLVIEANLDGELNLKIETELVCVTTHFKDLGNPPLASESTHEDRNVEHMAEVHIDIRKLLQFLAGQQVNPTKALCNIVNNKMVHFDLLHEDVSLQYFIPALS

T2: FLAG-tagged 9^ΔC-1-1 (9-1-1 ring), wild type (human, UniProt Q99638 1-272; O60671 1-282; O60921 1-280)
T2 construct: RAD9 with the C-tail truncated (RAD9^ΔC), human, residues 1-272, from pFastBac1-FLAG-RAD9^ΔC; RAD1 subunit of 9-1-1; HUS1 subunit of 9-1-1; also called 9^ΔC-1-1 (W); purified 9^ΔC-1-1; copies: + +
T2 sequence (looked up) 1: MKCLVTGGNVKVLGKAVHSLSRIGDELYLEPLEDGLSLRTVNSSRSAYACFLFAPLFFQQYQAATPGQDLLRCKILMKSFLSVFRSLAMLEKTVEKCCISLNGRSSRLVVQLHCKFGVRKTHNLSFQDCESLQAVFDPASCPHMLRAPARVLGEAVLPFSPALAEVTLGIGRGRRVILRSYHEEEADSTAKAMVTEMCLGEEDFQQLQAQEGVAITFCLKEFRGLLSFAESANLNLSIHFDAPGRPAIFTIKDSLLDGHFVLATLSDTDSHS
T2 sequence (looked up) 2: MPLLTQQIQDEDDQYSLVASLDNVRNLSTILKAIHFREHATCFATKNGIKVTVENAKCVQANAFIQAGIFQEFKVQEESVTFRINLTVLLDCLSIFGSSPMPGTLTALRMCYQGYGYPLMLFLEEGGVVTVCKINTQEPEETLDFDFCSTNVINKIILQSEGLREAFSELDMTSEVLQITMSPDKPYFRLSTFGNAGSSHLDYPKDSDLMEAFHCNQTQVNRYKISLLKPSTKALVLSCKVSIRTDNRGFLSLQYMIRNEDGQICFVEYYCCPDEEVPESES
T2 sequence (looked up) 3: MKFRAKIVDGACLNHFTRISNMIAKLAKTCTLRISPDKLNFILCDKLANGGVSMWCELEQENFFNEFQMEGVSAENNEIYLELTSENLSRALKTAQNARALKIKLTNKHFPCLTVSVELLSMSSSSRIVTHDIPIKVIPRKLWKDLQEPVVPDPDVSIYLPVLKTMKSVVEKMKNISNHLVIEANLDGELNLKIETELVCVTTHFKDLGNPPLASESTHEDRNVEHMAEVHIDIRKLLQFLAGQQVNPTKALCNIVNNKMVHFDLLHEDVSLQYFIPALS


Each binder was assayed against T1, recombinant human 9-1-1 ring for … (assay: crystal structure; 0.13 mM 9-1-1 ring incubated with about 10-fold molar excess of the RHINO peptide at 277 K overnight; vapor diffusion, 0.2 M potassium iodine, 14% PEG 3350, 293 K; 2.81 Å). Details: both partners purified.

binding result | Binder
binds | TSKFPHLTFESP (also called RHINO (residues 88-99); source: synthetic peptide (TORAY Research Center, Inc)) [human RHINO peptide (88-TSKFPHLTFESP-99)]

These binders were tested against T2, FLAG-tagged 9^ΔC-1-1 (9-1-1 ring), wild … (assay: pull-down; GST or GST-fusion proteins from E. coli lysate immobilised on Glutathione-Sepharose 4B beads and washed four times; incubated with purified PCNA, FLAG-tagged 9^ΔC-1-1 (W) or its LVF mutant for 2 h at 4 °C in 25 μl of buffer H (25 mM HEPES-NaOH pH 7.8, 150 mM NaCl, 1 mM EDTA, 10% glycerol, 0.01% NP-40); immunoblotting with anti-RAD1 or anti-PCNA antibody). Details: both partners purified.

Binder | binding result
GST-tagged p21 C-terminal region (residues 87-164) (GST-p21CT), wild type (domain or fragment, human, UniProt P38936 87-164, looked up, p21, C-terminal region carrying the PIP-box, residues 87-164; also called p21 (W); source: E. coli Rosetta 2(DE3)pLysS, from cell lysate immobilised on Glutathione-Sepharose 4B beads and washed) DELGGGRRPGTSPALLQGTAEEDHVDLSLSCTLVPRSGEQAEGSPGGPGDSQGRKRRQTSMTDFYHSKRRLIFSKRKP | binds
GST-p21CT FY (F150A/Y151A) (domain or fragment, human, UniProt P38936 87-164, looked up, p21, C-terminal region, residues 87-164, F150A/Y151A in the PIP-box; also called p21CT variant with the F150A/Y151A double substitution in the PIP-box; source: E. coli Rosetta 2(DE3)pLysS, from cell lysate immobilised on Glutathione-Sepharose 4B beads and washed) DELGGGRRPGTSPALLQGTAEEDHVDLSLSCTLVPRSGEQAEGSPGGPGDSQGRKRRQTSMTDAAHSKRRLIFSKRKP | binds
PPPKKFRSLFFGSIL (peptide, UniProt Q99638 356-370, looked up, RAD9, human, residues 356-370 of the C-tail; source: E. coli Rosetta 2(DE3)pLysS, from cell lysate immobilised on Glutathione-Sepharose 4B beads and washed) [GST-tagged RAD9 (residues 356-370) (GST-RAD9C15), wild type] | binds

More lines, now with the values ahead:

binding result | Binder
binds | PPPKKARSLFFGSIL (peptide, UniProt Q99638 356-370, looked up, RAD9, human, residues 356-370 of the C-tail, F361A; source: E. coli Rosetta 2(DE3)pLysS, from cell lysate immobilised on Glutathione-Sepharose 4B beads and washed) [GST-RAD9C15 F361A]
binds | PPPKKFRSLAFGSIL (peptide, UniProt Q99638 356-370, looked up, RAD9, human, residues 356-370 of the C-tail, F365A; source: E. coli Rosetta 2(DE3)pLysS, from cell lysate immobilised on Glutathione-Sepharose 4B beads and washed) [GST-RAD9C15 F365A]
